The values below come from PMC3575409, “Identification of a Novel Protein-Protein Interaction Motif Mediating Interaction of GPCR-Associated Sorting Proteins with G Protein-Coupled Receptors” (PLoS ONE, 2013).

What all share (type): binding
Test [1] relates to GST-fused CALCR C-tail. The test is described as follows: GST-pull down, CALCR C-tail. The following applies: percent of [35S]-GASP input; pH 7.4, 1 h at 4°C; three independent experiments. How it is done:
(§1) cDNAs encoding the cytoplasmic C-tail of 14 GPCRs and 2 one-transmembrane receptors were cloned into the pGEX-2T prokaryotic expression vector downstream the GST sequence. […]
(§2) GST-fusion proteins were immobilized on glutathione-coupled Sepharose beads (GE Healthcare) for 1 h at 4°C and incubated with [^35S]-labelled in vitro translated GASP proteins or their truncated or mutated forms in ice-cold binding buffer containing: 20 mM Tris-HCl pH 7.4, 150 mM NaCl, 1 mM EDTA, 1 mM DTT, 10% glycerol and 1% Triton X-100. […] The supernatants were then analyzed by SDS-PAGE, the gels were stained with Coomassie blue to visualize GST-fusion proteins, dried and analyzed using a Phosphor-imager (Personal Molecular Imager FX, Biorad) to visualize [^35S]-labelled GASPs. Quantification was performed with the Quantity One software (Biorad). GST-pull down quantification data were analyzed using GraphPad Prism 4.03 (GraphPad Software). Quantifications presented are means of at least three independent experiments.

The subject of test [2] is GST-fused IGF1 (insulin growth factor I receptor) C-tail. The test is described as follows: GST-pull down, IGF1 C-tail. The conditions noted are these: for interaction with IGF1 C-tail: non-GPCR control; for GASP input retained by control IGF1 C-tail: percent of [35S]-GASP input, controls. An excerpt: (§3) cDNAs encoding the cytoplasmic C-tail of 14 GPCRs and 2 one-transmembrane receptors were cloned into the pGEX-2T prokaryotic expression vector downstream the GST sequence. The following pGEX constructs were engineered: pGEX-DOR encoding residues 314–372 of the δ-opioid receptor (referring to Swiss-Prot accession number U10504), pGEX-MOR encoding residues 334–400 of the µ-opioid receptor (L29301), pGEX-KOR encoding residues 326–380 of the κ–opioid receptor (U17298), pGEX-ORL1 encoding residues 315–370 of the opioid receptor-like 1 (X77130), pGEX-M1 encoding residues 414–460 of the muscarinic M1 acetylcholine receptor (X52068), pGEX-M2 encoding residues 436–466 of the muscarinic M2 acetylcholine receptor (M16404), pGEX- ADRB1 encoding residues 373–477 of the β1 adrenergic receptor (J03019), pGEX-ADRB2 encoding residues 322–413 of the β2 adrenergic receptor (P07550), pGEX-CALCR encoding residues 407–490 of the calcitonin receptor (L00587), pGEX-CNR2 encoding residues 295–360 of the cannabinoid type 2 receptor (P34972), pGEX-5HT7 encoding residues 380–445 of the 5-hydroxytryptamine 7 receptor (L21195), pGEX-H2 encoding residues 284–349 of the histamine 2 receptor (S57565), pGEX-TXA2 encoding residues 304–343 of the α isoform of the thromboxane A2 receptor (D38081), pGEX-FZ4 encoding residues 493–537 of the frizzled 4 receptor (AB032417), pGEX-TGFβ encoding residues 805–849 of the type III transforming growth factor b receptor (L07594), pGEX-IGF1 encoding residues 1268–1367 of the insulin growth factor I receptor (X04434). Free GST was produced by using the pGEX-4T3 expression vector without insert. The same plasmid was used to clone the cDNA encoding a central domain of GASP-1, corresponding to amino acids 380 to 1073, downstream the GST sequence. All these plasmids were transformed into the Escherichia coli BL21 strain and expression was induced using 1mM of isopropylthiogalactoside for 2 h at 37°C. Bacteria were then pelleted, resuspended in PBS supplemented with cOmplete protease inhibitors (Roche), lysed at 1.5 kbar using a basic Z cell disrupter (constant system) and finally the lysates were cleared by centrifugation (10,000g, 15 min, 4°C).
(§4) cDNAs encoding GASP-1 and GASP-2 were cloned into the pcDNA3 eukaryotic expression vectors. cDNAs encoding GASP-3, -6, -7, and -9 were subcloned into pcDNA3.1 vectors. All the clones were controlled by DNA sequencing. The in vitro production was performed by using the TNT Quick-coupled Transcription/Translation T7 kit (Promega) in presence of [^35S]-Methionine according to the instructions from the manufacturer.
(§5) GST-fusion proteins were immobilized on glutathione-coupled Sepharose beads (GE Healthcare) for 1 h at 4°C and incubated with [^35S]-labelled in vitro translated GASP proteins or their truncated or mutated forms in ice-cold binding buffer containing: 20 mM Tris-HCl pH 7.4, 150 mM NaCl, 1 mM EDTA, 1 mM DTT, 10% glycerol and 1% Triton X-100. The mixture was incubated for 1 h at 4°C with gentle rocking. The beads were washed five times with the same ice-cold buffer, resuspended in 30 µl SDS-PAGE sample buffer, incubated 10 min at 65°C, and pelleted for 60 s at 3000 g. The supernatants were then analyzed by SDS-PAGE, the gels were stained with Coomassie blue to visualize GST-fusion proteins, dried and analyzed using a Phosphor-imager (Personal Molecular Imager FX, Biorad) to visualize [^35S]-labelled GASPs. Quantification was performed with the Quantity One software (Biorad). GST-pull down quantification data were analyzed using GraphPad Prism 4.03 (GraphPad Software). Quantifications presented are means of at least three independent experiments.

The subject of test [3] is GST-fused M1 C-tail. The experiment in a line: GST-pull down, M1 C-tail. The following applies: percent of [35S]-GASP input; pH 7.4, 1 h at 4°C; three independent experiments.
Excerpt: as §3, §4, §5

Test [4] deals with GST-fused GPCR C-tails. The experiment in a line: GST-pull down, GPCR C-tails. The following applies: twelve GPCR C-tails.
Excerpt: as §3, §4
as §5, with “experiments. […]” for “experiments.”

For test [5], the system named is GST-fused TXA2 C-tail. The test is described as follows: GST-pull down, TXA2 C-tail. The following applies: percent of [35S]-GASP input; pH 7.4, 1 h at 4°C; three independent experiments. How it is done: as §1, §2
The test system of test [6] is GST-fused ADRB1 C-tail. The experiment in a line: GST-pull down, ADRB1 C-tail. The conditions noted are these: percent of [35S]-GASP input; pH 7.4, 1 h at 4°C; three independent experiments.
Excerpt: as §3, §4, §5

Test [7] concerns GST-fused TGFβ (type III transforming growth factor β receptor) C-tail. The experiment in a line: GST-pull down, TGFβ C-tail. The conditions noted are these: for interaction with TGFβ C-tail: non-GPCR control; for GASP input retained by control TGFβ C-tail: percent of [35S]-GASP input, controls.
Excerpt: as §3, §4, §5

Test [8] relates to GST-fused DOR C-tail. The test is described as follows: GST-pull down, DOR C-tail. The conditions noted are these: percent of [35S]-GASP input; pH 7.4, 1 h at 4°C; three independent experiments.
Excerpt: as §3, §4, §5

For test [9], the system named is GST-fused H2 (histamine H2 receptor) C-tail. The test is described as follows: GST-pull down, H2 C-tail. The conditions noted are these: percent of [35S]-GASP input; pH 7.4, 1 h at 4°C; three independent experiments. The protocol:
as §1, §2

B1: GASP-6: member of the second GASP subfamily, without GASP motif (protein)
chain: MGYARKVGWVTAGLVIGAGACYCIYRLTRGRKQNKEKMAEGGSGDVDDAGDCSGARYNDWSDDDDDSNESKSIVWYPPWARIGTEAGTRARARARARATRARRAVQKRASPNSDDTVLSPQELQKVLCLVEMSEKPYILEAALIALGNNAAYAFNRDIIRDLGGLPIVAKILNTRDPIVKEKALIVLNNLSVNAENQRRLKVYMNQVCDDTITSRLNSSVQLAGLRLLTNMTVTNEYQHMLANSISDFFRLFSAGNEETKLQVLKLLLNLAENPAMTRELLRAQVPSSLGSLFNKKENKEVILKLLVIFENINDNFKWEENEPTQNQFGEGSLFFFLKEFQVCADKVLGIESHHDFLVKVKVGKFMAKLAEHMFPKSQE
modifications: [35S]-methionine labelled
B1: in test [1], the “GASP input retained by CALCR C-tail” value is on record as “around 2%”. In addition, in [2], the “interaction with IGF1 C-tail” value is on record as “No interaction was detected” and the “GASP input retained by control IGF1 C-tail” value is on record as “less than 1%”. Further, the “GASP input retained by M1 C-tail” value in [3] is “around 2%”. Also, in test [4], the “interaction with GPCR C-tails” value is given as “very weak interactions”. Further, the “GASP input retained by TXA2 C-tail” value in test [5] was “around 2%”. Further, in test [6], the “GASP input retained by ADRB1 C-tail” value is given as “around 2%”. In test [7], the “interaction with TGFβ C-tail” value is listed as “No interaction was detected” and the “GASP input retained by control TGFβ C-tail” value is reported as “less than 1%”. Besides, the “GASP input retained by DOR C-tail” value in test [8] is recorded as “around 2%”. In addition, the “GASP input retained by H2 C-tail” value in test [9] is “around 2%”.

B2: GASP-9: member of the second GASP subfamily, without GASP motif (protein)
chain: MSRVRDAGCVAAGIVIGAGAWYCVYKYTRGRDQTKKRMAKPKNRAVAGTGARARAGLRAGFTIDLGSGFSPPTPVRAEAEDRAQDEASALDTVGAEAVAPAASSAEAQSGAGSQAQEADGAGVGPKAESVVGAAMASAIAPPPGVTEALGAAEAPAMAGAPKVAEAPREAETSRAAVPPGTVVPTEAAAPTEVTEGPGVAAPTKVAEAPGVASPTEAAEAPVPATPTGAAAPTGAAESPGTSGSPRTAVVPGTSAAKKATPGAHTGAIPKATSATGAVPKGGGKGVTRSRNGGKGKGKKSKVEVDELGMGFRPGDGAAAAAAASANGGQAFLAEVPDSEEGESGWTDTESDSDSEPETQRRGRGRRPVAMQKRPFPYEIDEILGVRDLRKVLALLQKSDDPFIQQVALLTLSNNANYSCNQETIRKLGGLPIIANMINKTDPHIKEKALMAMNNLSENYENQGRLQVYMNKVMDDIMASNLNSAVQVVGLKFLTNMTITNDYQHLLVNSIANFFRLLSQGGGKIKVEILKILSNFAENPDMLKKLLSTQVPASFSSLYNSYVESEILINALTLFEIIYDNLRAEVFNYREFNKGSLFYLCTTSGVCVKKIRALANHHDLLVKVKVIKLVNKF
modifications: [35S]-methionine labelled
Consider B2, for which the “GASP input retained by CALCR C-tail” value in [1] was “around 2%”. For the same molecule, in test [2], the “interaction with IGF1 C-tail” value is “No interaction was detected” and the “GASP input retained by control IGF1 C-tail” value is recorded as “less than 1%”. Further, the “GASP input retained by M1 C-tail” value in [3] is recorded as “around 2%”. In test [4], the “interaction with GPCR C-tails” value was “very weak interactions”. Also, in test [5], the “GASP input retained by TXA2 C-tail” value is recorded as “around 2%”. The “GASP input retained by ADRB1 C-tail” value in test [6] is “around 2%”. Further, in test [7], the “interaction with TGFβ C-tail” value is on record as “No interaction was detected” and the “GASP input retained by control TGFβ C-tail” value is on record as “less than 1%”. For the same molecule, the “GASP input retained by DOR C-tail” value in test [8] is “around 2%”. Moreover, the “GASP input retained by H2 C-tail” value in [9] is “around 2%”.
